The source of these data is patent publication US20160220655A1 (BOARD OF REGENTS FOR OKLAHOMA STATE UNIVERSITY, published 2016).

The test concerns the target T1, SipB (recombinant, His-tag technology, expressed in E. coli) (Salmonella, UniProt Q56019 1-593).
T1 construct: also called first 'translocator' protein SipB from SPI-1
T1 sequence: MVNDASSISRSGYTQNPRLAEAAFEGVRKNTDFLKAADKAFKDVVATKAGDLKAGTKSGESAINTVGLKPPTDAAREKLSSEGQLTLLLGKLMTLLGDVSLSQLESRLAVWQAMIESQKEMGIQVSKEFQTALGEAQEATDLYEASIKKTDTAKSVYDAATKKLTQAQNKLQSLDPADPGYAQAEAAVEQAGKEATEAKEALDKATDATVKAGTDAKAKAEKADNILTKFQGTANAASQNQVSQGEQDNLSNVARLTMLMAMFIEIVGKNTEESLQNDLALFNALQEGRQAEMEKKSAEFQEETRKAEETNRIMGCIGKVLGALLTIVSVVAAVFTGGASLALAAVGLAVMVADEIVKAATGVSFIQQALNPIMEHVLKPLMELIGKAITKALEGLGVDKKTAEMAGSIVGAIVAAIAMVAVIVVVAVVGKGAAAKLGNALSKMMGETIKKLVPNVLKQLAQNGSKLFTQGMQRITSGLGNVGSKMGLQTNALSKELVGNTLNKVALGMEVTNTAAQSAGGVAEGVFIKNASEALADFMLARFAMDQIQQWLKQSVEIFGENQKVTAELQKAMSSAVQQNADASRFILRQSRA
The test can be described thus: co-expression in E. coli and co-purification by column chromatography.

B1: SicA, cognate chaperone of SipB (other)
chain: MDYQNNVSEERVAEMIWDAVSEGATLKDVHGIPQDMMDGLYAHAYEFYNQGRLDEAETFFRFLCIYDFYNPDYTMGLAAVCQLKKQFQKACDLYAVAFTLLKNDYRPVFFTGQCQLLMRKAAKARQCFELVNERTEDESLRAKALVYLEALKTAETEQHSEQEKE
As to B1, the binding result is “binds”.
